# Test results reported in US20070031511A1, “Method of treatment” (priority 2003, published 2007).
# B1: Progastrin: recombinant human progastrin6-80 (protein, listed as Homo sapiens)
# chain: SQQPDAPLGTGANRDLELPWLEQQGPASHHRRQLGPQGPPHLVADPSKKQGPWLEEEEEAYGWMDFGRRSAEDEN
# Experiment: Quenching of peptide tryptophan fluorescence by ferric ions (stoichiometry, apparent Kd)
# Assay type: binding
# Details: 10 mM sodium acetate pH 4.0, 100 mM NaCl, 0.005% Tween 20; mean ± S.E.; read-out: Kd (μM), apparent dissociation constant for ferric ions
# Protocol: The tryptophan fluorescence of peptide solutions was measured in 3 mL quartz cuvettes thermostated at […], with a Spex Fluorolog-2 spectrofluorimeter (Spex Industries, Edison, N.J.), with the excitation and emission wavelengths set at 290 and 345 nm, respectively. The quenching of tryptophan fluorescence induced by the binding of metal ions was used to calculate the fraction of binding sites occupied, fa: fa=(yf−y)/(yf−yb) where y is the fluorescence signal at a given concentration of metal ions and yb and yf are the signals when the binding sites are fully occupied and unoccupied, respectively (Winzor et al, 1995). […]
# The tryptophan fluorescence of progastrin6-80, glycine-extended gastrin17 and related peptides was measured in the presence of increasing concentrations of ferric ions in 10 mM sodium acetate, pH 4.0, 100 mM NaCl, 0.005% Tween 20. […]
# The tryptophan fluorescence of amidated gastrin17 and related peptides was measured in the presence of increasing concentrations of ferric ions at pH 4.0 (8). […]
molecule,measurement,value
B1,Kd,2.15 ± 0.14 µM
